B1: wild-type (WT) calsequestrin type 1 (CSQ1), rabbit [rabbit] / skeletal triadin 95 kDa (trisk95) [rabbit (endogenous in skeletal muscle SR vesicles)] (parent)
chain 1: EEGLDFPEYDGVDRVINVNAKNYKNVFKKYEVLALLYHEPPEDDKASQRQFEMEELILELAAQVLEDKGVGFGLVDSEKDAAVAKKLGLTEEDSIYVFKEDEVIEYDGEFSADTLVEFLLDVLEDPVELIEGERELQAFENIEDEIKLIGYFKNKDSEHYKAFKEAAEEFHPYIPFFATFDSKVAKKLTLKLNEIDFYEAFMEEPVTIPDKPNSEEEIVNFVEEHRRSTLRKLKPESMYETWEDDMDGIHIVAFAEEADPDGYEFLEILKSVAQDNTDNPDLSIIWIDPDDFPLLVPYWEKTFDIDLSAPQIGVVNVTDADSVWMEMDDEEDLPSAEELEDWLEDVLEGEINTEDDDDEDDDDDDDD
chain 2: MTEITAEGNASTTTTVIDSKNGSVPKSPGKVLKRTVTEDLVTTFSSPAAWLLVIALIITWSAVAVVMFDLVDYKNFSASSIAKMGSDPLKLVHDAVEETTDWIYGFFSLLSDIISSDGDEEDDEGDEDTAKGEIEEPPLKRKDIHKEKIEKQEKPERKIPTKVVHKEKEKEKEKVKEKEKPEKKATHKEKLEKKEKPETKTVTKEEKKARTKEKIEEKTKKEVKGVKQEKVKQTVAKAKEVQKTPKPKEKESKETAAVSKQEQKDQYAFCRYMIDIFVHGDLKPGQSPAIPPPSPTEQASRPTPALPTPEEKEGEKKKAEKKVTTETKKKAEKEDAKKKSEKETDIDMKKKEPGKSPDTKPGTVKVTTQAATKKDEKKEDSKKAKKPAEEQPKGKKQEKKEKHEEPAKSTKKEHAAPSEKQAKAKIERKEEVSAASTKKAVPAKKEEKTTKTVEQETRKEKPGKISSVLKDKELTKEKEVKVPASLKEKGSETKKDEKTSKPEPQIKKEEKPGKEVKPKPPQPQIKKEEKPEQDIMKPEKTALHGKPEEKVLKQVKAVTTEKHVKPKPAKKAEHQEKEPPSIKTDKPKSTSKGMPEVTESGKKKIEKSEKEIKVPARRESHQLQNVTKAEKPARGSKEGFEDVPASKKAKEEAEEVSSTKKQKSPISFFQCVYLDGYNGYGFQFPVTPAQYPGESSGKPNSPGPKQ

Variants of: B1
Experiment: co-immunoprecipitation (CSQ1 IP, Western blot densitometry)
Details: with skeletal triadin 95 kDa (trisk95) [rabbit (endogenous in skeletal muscle SR vesicles)]; 1 mM Ca2+; parent: 100; read off a plot

Going from chain 1 D363A D365A D367A to chain 1 D365A D367A, the percent of parent (% relative binding) rises from 84 to 110.

chain 1 D367A showed a percent of parent (% relative binding) of 86.
